Target: T1, HA-tagged Pyk1 (HA-Pyk1) (S. cerevisiae, UniProt P00549 1-500)
T1 construct: Pyk1 (Cdc19), pyruvate kinase of S. cerevisiae; also called pRS313-HA-PYK1; source: S. cerevisiae (pyk1∆ tsa1/2∆ or pyk1∆ cells) carrying pRS313-HA-PYK1, in lysate (whole cell extract)
T1 sequence (looked up): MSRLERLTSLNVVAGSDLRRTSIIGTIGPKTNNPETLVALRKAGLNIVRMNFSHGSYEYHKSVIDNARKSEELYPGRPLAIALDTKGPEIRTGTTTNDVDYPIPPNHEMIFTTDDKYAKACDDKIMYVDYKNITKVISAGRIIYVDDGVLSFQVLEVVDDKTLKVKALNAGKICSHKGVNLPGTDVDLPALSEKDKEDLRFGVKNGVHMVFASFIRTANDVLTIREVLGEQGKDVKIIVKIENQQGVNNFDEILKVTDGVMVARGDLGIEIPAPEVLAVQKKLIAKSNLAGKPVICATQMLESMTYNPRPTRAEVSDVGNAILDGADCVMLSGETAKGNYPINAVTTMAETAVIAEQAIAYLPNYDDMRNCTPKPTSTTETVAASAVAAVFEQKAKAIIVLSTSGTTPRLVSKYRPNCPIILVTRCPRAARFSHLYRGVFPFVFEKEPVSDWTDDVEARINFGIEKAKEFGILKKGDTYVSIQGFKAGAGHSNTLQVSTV
Experiment: co-IP; HA-Pyk1 precipitated with anti-HA antibody beads from yeast whole cell extract (400 μg; IP buffer: 100 mM MES pH 7.0, 200 mM KCl, 15 mM MgCl2, 5% glycerol, 0.15% NP-40, 50 mM NEM; 4 °C, 3 h); immunoblot with anti-Tsa1, anti-Pyk1 and anti-Prx-SO2/SO3; cells from glucose (SDM) or ethanol (SEM -Trp) medium, exponential, diauxic shift or early stationary phase, with or without 1, 3 or 10 mM H2O2
Conditions: partners not purified

B1: Tsa1^C48T (enzyme, S. cerevisiae, UniProt P34760 1-196, looked up)
chain: MVAQVQKQAPTFKKTAVVDGVFDEVSLDKYKGKYVVLAFIPLAFTFVTPTEIIAFSEAAKKFEEQGAQVLFASTDSEYSLLAWTNIPRKEGGLGPINIPLLADTNHSLSRDYGVLIEEEGVALRGLFIIDPKGVIRHITINDLPVGRNVDEALRLVEAFQWTDKNGTVLPCNWTPGAATIKPTVEDSKEYFEAANK
notes: Tsa1 of S. cerevisiae with the peroxidatic cysteine Cys48 mutated to Thr; source: S. cerevisiae pyk1∆ tsa1/2∆ cells carrying an expression vector (pRS315), in lysate
fold decrease of Pyk1-bound Tsa1 against wild-type Tsa1 (ethanol medium): ~3 fold

B2: Tsa1^C171T (enzyme, S. cerevisiae, UniProt P34760 1-196, looked up)
chain: MVAQVQKQAPTFKKTAVVDGVFDEVSLDKYKGKYVVLAFIPLAFTFVCPTEIIAFSEAAKKFEEQGAQVLFASTDSEYSLLAWTNIPRKEGGLGPINIPLLADTNHSLSRDYGVLIEEEGVALRGLFIIDPKGVIRHITINDLPVGRNVDEALRLVEAFQWTDKNGTVLPTNWTPGAATIKPTVEDSKEYFEAANK
notes: Tsa1 of S. cerevisiae with the resolving cysteine Cys171 mutated to Thr; source: S. cerevisiae tsa1/2Δ cells carrying an expression vector (pRS315), in lysate
stoichiometry N: 8 molecules of Tsa1^C171T for each tetramer of Pyk1

— paper PMC5025857, “Redox-dependent Regulation of Gluconeogenesis by a Novel Mechanism Mediated by a Peroxidatic Cysteine of Peroxiredoxin” (Scientific Reports, 2016)
